Test results as given in patent US20030119733A1, “Compositions and methods for inhibiting hepatocyte invasion by malarial sporozoites” (New York University, priority 1992, published 2003).

Legend:
[1] = tested on: hepatocyte microvilli in the Space of Disse; experiment: Electron immunomicroscopy of liver sections; assay type: binding, rat; conditions: MAb 2A10 and gold conjugate
Experimental: Rat or mouse liver tissue or hepatocyte subcellular fractions from Example 2 were fixed in PBS containing 1% glutaraldehyde (grade 1, Sigma, St. Louis, Mo.) and 4% paraformaldehyde (Kodak, Rochester, N.Y.), dehydrated in ethanol, and embedded in LR White (Polysciences, Warrington, Wash.). (Frevert et al., Infect. and Immun. 60:2349-2360, June 1992.) Normal human liver was embedded in Lowicryl K4M (Ted Pella, Redding, Calif.). Ultrathin sections were labelled by incubating them sequentially with 10-50 μg/ml CS27IVC, CSFZ (Cys), Falc-2, or Falc-1 for 30 min.; 15 μg/ml MAb 2A10 for 30 min.; protein A-gold 15 nm (PAG15, 1:30; Amersham, Arlington, Ill.) or goat anti-mouse IgG gold 10 nm (GAM10, 1:30; Amersham) for 30 min. Control specimens were incubated in the absence of CS and only with the gold conjugates. Photographs were taken with a Philips EM 301 electron microscope.
To identify the hepatocyte structures interacting with the CS, glutaraldehyde-fixed and LR White-embedded thin sections of rat liver were incubated with the recombinant CS polypeptide CS27IVC, mAb 2A10 and goat anti-mouse IgG-gold and analyzed by immunoelectron microscopy. Human liver tissue embedded in K4M was also labelled with CS27IVC followed by MAb 2A10 and protein A-gold.

[2] = Solid phase binding assay, sulfatide; conditions: lipid dried into microtiter wells
Experimental: (§1) Solid phase binding assays: Thirty μl of lipids or steroids dissolved in methanol (20-250 μg/ml) were dried into wells of microassay plates (Cat.# 3911—Falcon—Oxnard, Calif.). The plates were then blocked with 1% BSA/PBS pH 7.4 (BSA/PBS) for 30 minutes. Wells were incubated with recombinant protein (or with parasite extract) in PBS/BSA for 1 hour, washed 3 times with BSA/PBS, incubated for 1 hour with monoclonal antibodies 2F2 or 2A10 in BSA/PBS, washed 3 times, and then incubated with (10^5 cpm/well) ^125I protein A (Amersham Corp., Arlington Hts., Ill.). In the case of the P. berghei CS protein, wells were incubated with ^125I labelled mAb 3D11. Wells were washed again and the bound radioactive protein was counted in an LKB gamma-counter (model #1260, Pharmacia, Inc., Gaithersburg, Md.). For inhibition assays, the recombinant proteins were mixed with dilutions of the various polymers in BSA/PBS, the mixture was loaded into the wells of the microtiter plates, and the binding assay performed as above. See also, Roberts, et al. J. Biol. Chem. 260:9405-9411, 1985.
(§2) 1.4 nmol of sulfatide (open squares), cholesterol-3-sulfate (closed triangles), galactocerebroside I (closed circles), galactocerebroside II (open circles) and cholesterol (open triangles) were evaporated into microtiter wells and then incubated with serial dilutions of Vivax-2. […]

rat liver sections = experiment: Staining of frozen tissue sections with recombinant CS polypeptides; assay type: binding; conditions: revealed with MAb 2A10, fluorescence; CS27IVC 50-5 μg/ml, Falciparum-2 25 μg/ml, Falciparum-1 up to 250 μg/ml
Experimental: The procedure was carried out essentially as described by Dukor P. et al., Proc. Natl. Acad. Sci. USA 67:991-997, 1970 and Imai Y. et al., J. Cell. Biol. 111:1225-1232, 1990. Rats were euthanized with CO2. Small pieces of the liver, spleen, heart, brain and lung were removed, snap frozen in liquid nitrogen, embedded in Tissue Tek O.C.T. (Miles, Inc., Naperville, Ill.), and cut into 5 μm sections. Sections were dried for 30 min., fixed for 10 min. in 4% paraformaldehyde, rinsed three times with phosphate-buffered saline (PBS), and either used immediately or stored at 4° C. in 1% BSA, 0.5% Tween, PBS (BSA/TPBS). After blocking with 100 mM glycine (pH 7.2) and with BSA/TPBS, the sections were sequentially incubated at 37° C. with recombinant proteins for 1 hr, 10 μg/ml MAb 2A10 for 45 min., and rat anti-mouse immunoglobulin conjugated to fluorescein isothiocyanate (Boehringer Mannheim, Indianapolis, Ind.) for 45 min. The slides were counterstained for 10 min. with 0.3% Evans blue, rinsed extensively in PBS, and finally observed under a fluorescence microscope. For peptide inhibition experiments, the sections were first incubated with the peptide at various concentrations in BSA/TPBS for 1 hour at 37° C., washed six times with BSA/TPBS, and then stained with 2.5 μg/ml CS recombinant protein as described above. In a few experiments, the tissues were fixed for 10 min. with methanol, acetone, or 4% paraformaldehyde containing 0.5% glutaraldehyde.
Frozen sections of various rat organs were incubated with recombinant CS27IVC polypeptide. […] The staining closely followed the sinusoidal spaces of the hepatic lobules, indicating CS binding to the hepatocyte membrane. Other areas of the liver sections and sections of other organs (spleen, lung, heart or brain) were not stained. Control sections (incubated with CS27IVC in the absence of antibody or vice versa) were not stained either.
To define the region of the CS that mediates the perisinusoidal staining various other recombinant constructs were also used in the frozen section assay.

[3] = Solid phase binding assay, cholesterol-3-sulfate; conditions: steroid dried into microtiter wells
Experimental: as §1, §2

B1: Falciparum-1: Same as Falciparum-2 minus most of Region II+ (P. falciparum residues 43-348) (protein)
chain: AGTNLYNELEMNYYGKQENWYSLKKNSRSLGENDDGNNNNGDNGREGKDEDKRDGNNEDNEKLRKPKHKKLKQPGDGNPDPNANPNVDPNANPNVDPNANPNVDPNANPNANPNANPNANPNANPNANPNANPNANPNANPNANPNANPNANPNANPNANPNANPNVDPNANPNANPNANPNANPNANPNANPNANPNANPNANPNANPNANPNANPNANPNANPNANPNANPNANPNANPNANPNKNNQGNGQGHNMPNDPNRNVDENANANNAVKNNNNEEPSDKHIEQYLKKIKNSISTEWSP
gold labelling of liver sections [1]: negative
binding to sulfatide [2]: did not bind
binding (staining) to frozen liver sections (rat liver sections): did not bind
binding to cholesterol-3-sulfate [3]: did not bind

B2: Falciparum-2: fragment of P. falciparum CS protein with repeats and Region II+ (residues 43-391) (protein)
chain: AGTNLYNELEMNYYGKQENWYSLKKNSRSLGENDDGNNNNGDNGREGKDEDKRDGNNEDNEKLRKPKHKKLKQPGDGNPDPNANPNVDPNANPNVDPNANPNVDPNANPNANPNANPNANPNANPNANPNANPNANPNANPNANPNANPNANPNANPNANPNANPNVDPNANPNANPNANPNANPNANPNANPNANPNANPNANPNANPNANPNANPNANPNANPNANPNANPNANPNANPNANPNKNNQGNGQGHNMPNDPNRNVDENANANNAVKNNNNEEPSDKHIEQYLKKIKNSISTEWSPCSVTCGNGIQVRIKPGSANKPKDELDYENDIEKKICKMEKCSS
gold labelling of liver sections [1]: essentially the same results but with lower staining intensity
binding to sulfatide [2]: specifically bound sulfatide
binding (staining) to frozen liver sections (rat liver sections): bound to the liver sections
binding to cholesterol-3-sulfate [3]: bind
